Experimental data as given in publication PMC3421056 (2012).

T1: Factor Xa (Homo sapiens, UniProt P00742)
T1 chain: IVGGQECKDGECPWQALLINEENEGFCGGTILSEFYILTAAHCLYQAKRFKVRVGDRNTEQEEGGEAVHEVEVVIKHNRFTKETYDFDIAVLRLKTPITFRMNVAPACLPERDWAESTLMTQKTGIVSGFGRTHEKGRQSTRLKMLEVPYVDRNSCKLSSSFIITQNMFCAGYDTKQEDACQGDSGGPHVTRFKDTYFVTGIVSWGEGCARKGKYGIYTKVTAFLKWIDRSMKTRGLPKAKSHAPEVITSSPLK

B1: Lufaxin 1-278 (protein)
chain: DGDEYFIGKYKEKDETLFFASYGLKRDPCQIVLGYKCSNNQTHFVLNFKTNKKSCISAIKLTSYPKINQNSDLTKNLYCQTGGIGTDNCKLVFKKRKRQIAANIEIYGIPAKKCSFKDRYIGADPLHVDSYGLPYQFDQEHGWNVERYNIFKDTRFSTEVFYHKNGLFNTQITYLAEEDSFSEAREITAKDIKKKFSIILPNEEYKRISFLDVYWFQETMRKKPKYPYIHYNGECSNENKTCELVFDTDELMTYALVKVFTNPESDGSRLKEEDLGRG
B2: Lufaxin 1-278 (protein)
chain: B1 chain
modifications: S2222 substrate-bound FXa

Tests used:
[1] = target: T1, Factor Xa; test: SPR kinetics
[2] = target: T1, Factor Xa; test: SPR steady-state
[3] = target: T1, Factor Xa; test: chromogenic substrate S2222 inhibition, apparent Ki
[4] = target: T1, Factor Xa; test: ITC
[5] = target: T1, Factor Xa; test: chromogenic substrate S2222 inhibition, alphaKi

Row | Binder | Kd [1] [nM] | Kd [2] [nM] | Ki [3] [nM] | Kd [4] [nM] | Ki [5] [nM]
1 | B1 | 3.86 | 9.69 | 0.95 | 2.1 | 
2 | B2 |  |  |  |  | 2.21
